Results taken from the supplement of paper PMC10724198.
± gives the standard deviation of the averaged measurements.

Tested on: Saccharomyces cerevisiae
Test: protein stability index of tFT-peptide fusion (C-terminal peptide) (PSI (0-1 scale)); higher = more stable (slower turnover)
Details: genetic background: wild type; temperature: 30 C
Method: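 Multiplexed protein stability (MPS) profiling in S. cerevisiae. Random 12-aa peptides (tFT-X12 library) are fused to the C-terminus of a sfGFP-mCherry tandem fluorescent timer, after mCherry and a GGGS linker. Cells are FACS-sorted into 8 mCherry/sfGFP bins and deep-sequenced. The protein stability index (PSI) is the read-weighted bin average, scaled from 0 (unstable) to 1 (stable). Only peptides with >10 reads are reported; cells were grown at 30 °C in SC-His with glucose.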
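Note: PSI is a weighted mean of sequencing reads over stability bins, variants kept only with over 10 reads, mCherry proximal and sfGFP distal, peptide attached via GGGS linker.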

Sequence | protein stability index
GCGGGVCGWWDA | 0.916 ± 0.12
GCGGVGGFGGGL | 0.605 ± 0.047
GCGREGGGLDKD | 0.781 ± 0.094
GCGRGGIAGGPR | 0.702 ± 0.0014
GCGSVVVGVGGG | 0.652 ± 0.028
GCLCWVLSGRGA | 0.68 ± 0.035
GCQLLSEVSVCL | 0.667 ± 0.0079
GCRRGGGFLECV | 0.633 ± 0.034
GCRRGGGMERAQ | 0.649 ± 0.05
GCSLWCPDFCLC | 0.665 ± 0.0097
GCVVLGFDSVAV | 0.842 ± 0.2
GDECHSCSSPIA | 0.786 ± 0.13
GDGGCKVEWVRG | 0.724 ± 0.012
GDGLGFNRPNGR | 0.659 ± 0.025
GDGWPTRSGGTG | 0.701 ± 0.01
GDISILGSEYSM | 0.728 ± 0.0091
GDLASASAWGVR | 0.681 ± 0.026
GDPWLGVRNAVG | 0.749 ± 0.22
GDQTLVSSRQSG | 0.6603 ± 0.002
GDRGFTTEAGNC | 0.67 ± 0.018
GDRGTLTPLRRQ | 0.678 ± 0.0073
GDSSRVGPVGRA | 0.714
GDVRLWMRGIER | 0.803 ± 0.077
GEECGRERLMCF | 0.7291 ± 0.0055
GEEEGSQGGCEV | 0.6611 ± 0.0061

Sequence | protein stability index
GEGFLRVGLADV | 0.761 ± 0.09
GEGLGIGGYVRG | 0.672 ± 0.044
GEKSSDDYEVKD | 0.6554 ± 0.002
GESGGVGGQCWR | 0.74 ± 0.0082
GESPSRVRSSAG | 0.694 ± 0.036
GESSLSTGAQHK | 0.67 ± 0.021
GESWEKVMNKRM | 0.704 ± 0.049
GFAALLSSLFFL | 0.683 ± 0.061
GFAIWRDGKYRR | 0.674 ± 0.022
GFCSVIVLSLLL | 0.487 ± 0.041
GFFSCAPFPFNG | 0.741 ± 0.082
GFGILGLPQPCV | 0.662 ± 0.067
GFINYDHKVIRI | 0.77 ± 0.023
GFLCGFVGVFAD | 0.56953 ± 0.00032
GFLGTLARAGRE | 0.657 ± 0.068
GFLVALVSRIGW | 0.565 ± 0.037
GFRALRCPTAFS | 0.742 ± 0.078
GFRFSERRFPGL | 0.733 ± 0.0092
GFRGGAYRWCIS | 0.701 ± 0.03
GFSGLRGFWSGM | 0.713 ± 0.04
GFSGSPWSNPFV | 0.8663 ± 0.0025
GFSKNCSCVVLC | 0.559 ± 0.029
GFVGTVHLKCIS | 0.642 ± 0.031
GFVRGDRSGVGG | 0.702 ± 0.036
GFWSRIGDLFRG | 0.698 ± 0.037

Sequence | protein stability index
GGAGEAWGGLRW | 0.767 ± 0.025
GGAGGVVGGGGG | 0.616 ± 0.018
GGARVAVCEGGE | 0.771 ± 0.026
GGAVRSGRLFCC | 0.648 ± 0.022
GGAWESGRVEQV | 0.684 ± 0.041
GGCAGGVGRLAV | 0.692 ± 0.011
GGCFGGVGGGSG | 0.707 ± 0.034
GGCLSVLGLGSV | 0.688 ± 0.031
GGCRQKPRGGAD | 0.666 ± 0.09
GGCSDKVVRGGV | 0.695 ± 0.014
GGCVGVLGGWGV | 0.695 ± 0.012
GGDGGGERGEGK | 0.701 ± 0.027
GGDVHGEGNVCG | 0.698 ± 0.027
GGDWVGHVLDLW | 0.708 ± 0.012
GGEGGWLGEGIG | 0.59 ± 0.0098
GGESENEVGSRS | 0.644 ± 0.038
GGEVPFRLCRLW | 0.6914 ± 0.0019
GGFFLFAVGVGN | 0.627 ± 0.013
GGGAGGGGVVVR | 0.643 ± 0.016
GGGARCGGGCRV | 0.684 ± 0.03
GGGARGDCLMGS | 0.6809 ± 0.0018
GGGARGGGGWGG | 0.631 ± 0.097
GGGCRASSLFPE | 0.6644 ± 0.0058
GGGEGREEQEGR | 0.701 ± 0.019
GGGEGVPDSASE | 0.668 ± 0.021

Sequence | protein stability index
GGGGAGGGGGGG | 0.6739 ± 0.0021
GGGGATSGRLSR | 0.705 ± 0.023
GGGGCVMGVGRV | 0.668 ± 0.0092
GGGGGAGGDGRG | 0.66 ± 0.022
GGGGGAKGEGVR | 0.733 ± 0.1
GGGGGGGGAGGV | 0.6985 ± 0.0011
GGGGGGGGAWSG | 0.723 ± 0.037
GGGGGGVRWASG | 0.707 ± 0.051
GGGGGSMDLRDR | 0.697 ± 0.0076
GGGGGVWWVGRV | 0.678 ± 0.074
GGGGLFGCWVCG | 0.654 ± 0.011
GGGGMVVGEVVG | 0.685 ± 0.038
GGGGPGLEARSL | 0.618 ± 0.0078
GGGGRGGVVRSG | 0.634 ± 0.095
GGGGRGMWGIFG | 0.676 ± 0.045
GGGGSCWYGNRL | 0.6353 ± 0.0027
GGGGVFGVVRVG | 0.631 ± 0.037
GGGGWGRGKGCW | 0.719 ± 0.0079
GGGIERYCWLQI | 0.708 ± 0.067
GGGKRGDMSVVV | 0.689 ± 0.0092
GGGKRSERGGEP | 0.672 ± 0.12
GGGLGRRLLGGR | 0.69 ± 0.078
GGGRALGRVWPG | 0.684 ± 0.017
GGGRGAGIPVIF | 0.623 ± 0.073
GGGRGDWALRGG | 0.751 ± 0.011

Sequence | protein stability index
GGGRGVAVVWVV | 0.61 ± 0.023
GGGRRVCGVLAV | 0.619 ± 0.013
GGGSGVLEWGSV | 0.714 ± 0.12
GGGVEAIEVSQG | 0.678 ± 0.041
GGGVGRLAGLLG | 0.693 ± 0.046
GGGVRWGVGRGG | 0.652 ± 0.025
GGGVSCGRWGTG | 0.639 ± 0.086
GGGVSFWLGGVA | 0.633 ± 0.045
GGGVVGPGGVLK | 0.705 ± 0.11
GGGWGAGVRLTW | 0.757 ± 0.021
GGGWGGGGGVWG | 0.686 ± 0.047
GGGWRLIVLGWW | 0.585 ± 0.087
GGHSVRCGGGAL | 0.758 ± 0.037
GGILNLCVTSLC | 0.617 ± 0.022
GGKTRGVRMCGG | 0.648 ± 0.014
GGLGDIHSDDVE | 0.681 ± 0.019
GGLGGGRRGVGR | 0.664 ± 0.012
GGLIWRHGGGRG | 0.688 ± 0.023
GGLLGAGGGCGV | 0.681 ± 0.046
GGLVGACTRLSG | 0.657 ± 0.035
GGPGGGRPGPRA | 0.6972 ± 0.0026
GGPGGGVSGWEG | 0.704 ± 0.12
GGPVDGSVDRGR | 0.627 ± 0.017
GGRALVGGRRHG | 0.756 ± 0.14
GGRAQVGGWWGR | 0.774 ± 0.031

Sequence | protein stability index
GGRGAGGGVELR | 0.661 ± 0.075
GGRGAGRGSVGG | 0.679 ± 0.034
GGRGRVGEMGGR | 0.677 ± 0.015
GGRHARRGRRRR | 0.75 ± 0.11
GGRRVVKSWVLG | 0.66 ± 0.014
GGSGAGRRGGGR | 0.72 ± 0.03
GGSGGRVGVAGG | 0.645 ± 0.062
GGSRGWGAAAGR | 0.766 ± 0.065
GGSRPPPFRPPA | 0.724 ± 0.014
GGSRVSGVVGKG | 0.608 ± 0.0076
GGSVGSGSRLVV | 0.715 ± 0.038
GGTGGWVVNRGV | 0.706 ± 0.079
GGTRSDGYTQSR | 0.707 ± 0.017
GGTSVLPPAVLF | 0.762 ± 0.004
GGVCCGGLRGVS | 0.7398 ± 0.0039
GGVCVGLWGGRG | 0.709 ± 0.043
GGVDNWKAIRGI | 0.737 ± 0.043
GGVFCGGGALWA | 0.614 ± 0.014
GGVFWEEGAAER | 0.731 ± 0.023
GGVGATSGRLSR | 0.712 ± 0.011
GGVGGGVRRPGE | 0.669 ± 0.034
